Experiment [1] concerns the target TGF-beta receptors on mink lung epithelial cells (ATCC CCL-64) (mink). The experiment can be described thus: cell-based or functional assay.
For experiment [2], the target named is rat total IgG (Sigma-Aldrich) (rat). The experiment can be described thus: ELISA, rat total IgG on plate, 10 ng TGF-beta in 100 uL PBS, 18 h 4 C, bound TGF-beta detected with TGF-beta 1 ELISA kit. A general note: An ELISA detects its analyte on a solid surface through an enzyme-linked reagent.
Experiment [3] has the same target. The experiment can be described thus: ELISA, rat total IgG on plate, 10 ng TGF-beta in 100 uL 10% glycerol in 0.1M Tris pH 7.4, 18 h 4 C, bound TGF-beta detected with TGF-beta 1 ELISA kit.
Experiment [4] has the same target. The experiment can be described thus: ELISA, rat total IgG on plate, 10 ng TGF-beta in 100 uL 10% glycerol in PBS, 18 h 4 C, bound TGF-beta detected with TGF-beta 1 ELISA kit.
Experiment [5] has the same target. The experiment can be described thus: ELISA, rat total IgG on plate, 10 ng TGF-beta in 100 uL 0.1M Tris pH 7.4 (0 mM NaCl), 18 h 4 C, bound TGF-beta detected with TGF-beta 1 ELISA kit.
Experiment [6] concerns the target Mouse IgG1 (eBioscience) (mouse). The experiment can be described thus: Sephadex G-50 gel filtration of the TGF-beta/IgG mixture (1:10 molar), fractions assayed by TGF-beta ELISA. (SEC sorts molecules by how far they enter the pores of the column.)
Experiment [7] addresses Mouse IgG2a (eBioscience) (mouse). The experiment is described as above.
The target of experiment [8] is total mouse IgG (Sigma-Aldrich) (mouse). Nature of the experiment: 20 ng TGF-beta + 1 ug soluble total mouse IgG, PBS, room temperature, 5 min; Sepharose G-50 spin column eluate assayed by TGF-beta ELISA.
Experiment [9] has the same target. The experiment can be described thus: 20 ng TGF-beta + 1 ug soluble total mouse IgG, PBS, 42 C, 5 min; Sepharose G-50 spin column eluate assayed by TGF-beta ELISA.
Experiment [10] has the same target. The experiment can be described thus: 20 ng TGF-beta + 1 ug soluble total mouse IgG, 0.5x PBS with NaOH to pH 11, room temperature, 5 min; Sepharose G-50 spin column eluate assayed by TGF-beta ELISA.

Dissociated (Treated) TIGG: in experiment [1], the Cell Viability (OD450/Control OD450) at 0.25 pg/mL TIGG (OD450/Control OD450) was 0.621, the Cell Viability (OD450/Control OD450) at 2.5 pg/mL TIGG (OD450/Control OD450) amounted to 0.645, the Cell Viability (OD450/Control OD450) at 25 pg/mL TIGG (OD450/Control OD450) turned out to be 0.651 and the Cell Viability (OD450/Control OD450) at 250 pg/mL TIGG (OD450/Control OD450) is 0.651. The Cell Viability (OD450/Control OD450) at 2500 pg/mL TIGG (OD450/Control OD450) in experiment [1] came to 0.616.

As for “TGF-beta (Leinco Technologies, St. Louis, Mo.) (ligand)”, the Net Absorbance (450) (absorbance (450)) in experiment [2] was found to be 0.18; in [3], 0.7; in [4], 0; in experiment [5], 1.02.

On to “Transforming growth factor-beta 1 (Peprotech) (from UniProt P01137 279-390) (ligand)”, for which the percent of TGF-beta eluting in the IgG-bound fraction in experiment [6] and in experiment [7] was 40 to 50% each time. Moreover, the Net Absorbance (450) (absorbance (450)) turned out to be 0.193 in experiment [8], 0.117 in experiment [9] and 0.558 in experiment [10].

Take “purified mouse TIGG (Transforming Growth Factor-beta-bound IgG), intact”: in [1], the Cell Viability (OD450/Control OD450) at 0.25 pg/mL TIGG (OD450/Control OD450) stood at 0.965, the Cell Viability (OD450/Control OD450) at 2.5 pg/mL TIGG (OD450/Control OD450) turned out to be 0.924, the Cell Viability (OD450/Control OD450) at 25 pg/mL TIGG (OD450/Control OD450) was 0.897 and the Cell Viability (OD450/Control OD450) at 250 pg/mL TIGG (OD450/Control OD450) was 0.817. The Cell Viability (OD450/Control OD450) at 2500 pg/mL TIGG (OD450/Control OD450) in experiment [1] is 0.678.
